Residue numbers refer to the chain shown, from its start.

Assay in all cases: SPR
One data set concerns the target T1, DnaC R216A (Escherichia coli, UniProt P0AEF0 1-245, R216A).
T1 sequence: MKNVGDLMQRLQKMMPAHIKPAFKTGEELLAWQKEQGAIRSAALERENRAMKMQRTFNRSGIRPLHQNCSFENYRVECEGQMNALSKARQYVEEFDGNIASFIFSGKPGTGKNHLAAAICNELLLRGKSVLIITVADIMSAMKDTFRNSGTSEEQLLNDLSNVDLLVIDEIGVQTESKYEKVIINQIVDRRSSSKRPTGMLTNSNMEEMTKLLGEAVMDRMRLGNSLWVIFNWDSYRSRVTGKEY

A further data set concerns the target T2, DnaC R220A (Escherichia coli, UniProt P0AEF0 1-245, R220A).
T2 sequence: T1 sequence with A216R, R220A

Another data set addresses T3, DnaC (Escherichia coli, UniProt P0AEF0 1-245).
T3 sequence: T1 sequence with A216R

Turning to CATCCAATAAATCATACACAAGGC (ssDNA) [5'-biotinylated oligonucleotide], the binding result with DnaC R216A is listed as “binds”. The binding signal with DnaC R220A was 1.7 fold stronger than without ATP; with DnaC, ~2.4 fold stronger than without ATP.

Values taken from publication PMC2819048.
